In patent publication US20050226874A1 (CENTRE NATIONAL DE LA RECHERCHE SCIENTIFIQUE CNRS A …, published 2005):

Key:
[1] = biological target: T1, membranous CD4 (wild human CD4 expressed on cells) (human, UniProt P01730 26-458); experiment: flow cytometry, T A2.01/CD4 cells, Fab at 10 µg/ml, fluorescein-labeled anti-kappa chain antibody
T1 construct: whole, on cells; also called T A2.01/CD4 cells; T AN2.01/CD4 cells
Procedure: (§1) The binding of the wild or mutant Fabs to the membranous CD4 was evaluated by flow cytometry.
(§2) In order to determine the binding of the fragments to the membranous CD4, T AN2.01 CD4+ cells were analyzed by indirect immunofluorescent labeling and flow cytometry (FIG. 4).

[2] = biological target: T2, soluble human recombinant CD4 expressed in baculovirus (human, UniProt P01730 26-396, limits assumed); experiment: SPR (BIAcore), CD4 immobilised, Exp. 1
T2 construct: Coated on plates for the ELISA and covalently immobilised on the sensor for BIAcore; Only called soluble; also called soluble CD4; CD4 expressed in the baculovirus
Procedure: (§3) The kinetic parameters of the binding of CD4 to the paratope of the Fab fragments of the 13B8.2 antibody were determined by analysis of the surface plasmon resonance by means of a BIAcore analyzer (BIAcore AB, Uppsala, Sweden).

[3] = biological target: T2, soluble human recombinant CD4 expressed …; experiment: SPR (BIAcore), CD4 immobilised, Exp. 2
Procedure: as §3

[4] = biological target: T1, membranous CD4 (wild human CD4 …); experiment: flow cytometry, T A2.01/CD4 cells, Fab at 1 µg/ml, fluorescein-labeled anti-kappa chain antibody
Procedure: as §1, §2

[5] = biological target: T2, soluble human recombinant CD4 expressed …; experiment: SPR (BIAcore), CD4 immobilised, Exp. 3
Procedure: as §3

[6] = biological target: T2, soluble human recombinant CD4 expressed …; experiment: SPR (BIAcore), CD4 immobilised
Procedure: as §3

[7] = biological target: T3, biotinylated human recombinant CD4 (Repligen Inc.) (human, UniProt P01730 26-394, limits assumed, biotinylated (sites not given)); experiment: quantified Spot reactivity, membrane probed with biotinylated CD4
T3 construct: Probe of the Spot membranes, used at 1 µg/ml; also called biotinylated CD4; CD4 probe
Procedure: The antigenic reactivity of the peptides bound to the cellulose membrane was tested with biotinylated CD4 (1 μg/ml) under conditions that led to the production of a blue precipitate for the reactive spots as described in [Bès, 2001b].

B1: wild recombinant chimeric Fab fragment of the 13B8.2 anti-CD4 antibody (Fab, V domains shown)
VH: QVQLKQSGPGLVQPSQSLSITCTVSGFSLTTFGVHWVRQSPGKGLEWLGVIWRSGITDYNVPFMSRLSITKDNSKSQVFFKLNSLQPDDTAIYYCAKNDPGTGFAYWGQGTLVTVSA
VL: DIQMTQSPASLSASVGETVTFTCRASENIYSYLAWYQQKQGKSPQLLVHDAKTLAEGVPSRFSGGGSGTQFSLKINTLQPEDFGTYYCQHHYGNPPTFGGGTKLEIK
notes: Chimeric Fab: murine V domains fused to human CH1-γ1 (Fdγ1) and human Cκ, expressed in baculovirus/Sf9 cells, purified on protein G; also called Fabwild 13B8.2; wild Fab
In the case of B1, the “percent of cells under the marker bar of the histogram” value (from here on “percent of cells”) [1] is reported as 84.8%, the Kd [2] is reported as 28.4 nM and the koff [2] is reported as 0.000108 s⁻¹. For the same binder, the kon [2] was 3800 M⁻¹ s⁻¹, the Kd [3] was 33.5 nM and the koff [3] was 0.000161 s⁻¹. The kon [3] was 4800 M⁻¹ s⁻¹, the “percent of cells” value [4] was 44.7% and the Kd [5] was 25.6 nM. The koff [5] was 6.4e-05 s⁻¹ and the kon [5] was 2500 M⁻¹ s⁻¹.

B2: mutant Fab R53-H of the 13B8.2 antibody (Fab, V domains shown)
VH: QVQLKQSGPGLVQPSQSLSITCTVSGFSLTTFGVHWVRQSPGKGLEWLGVIWASGITDYNVPFMSRLSITKDNSKSQVFFKLNSLQPDDTAIYYCAKNDPGTGFAYWGQGTLVTVSA
VL: DIQMTQSPASLSASVGETVTFTCRASENIYSYLAWYQQKQGKSPQLLVHDAKTLAEGVPSRFSGGGSGTQFSLKINTLQPEDFGTYYCQHHYGNPPTFGGGTKLEIK
notes: Chimeric Fab with human CH1-γ1 and Cκ; baculovirus/Sf9
B2 was tested, and the “percent of cells” value [1] was 43.2%, the Kd [6] was 29200 nM and the koff [6] was 0.0105 s⁻¹. It also gave a kon [6] of 359 M⁻¹ s⁻¹.

B3: mutant Fab F100K-H of the 13B8.2 antibody (Fab, V domains shown)
VH: QVQLKQSGPGLVQPSQSLSITCTVSGFSLTTFGVHWVRQSPGKGLEWLGVIWRSGITDYNVPFMSRLSITKDNSKSQVFFKLNSLQPDDTAIYYCAKNDPGTGAAYWGQGTLVTVSA
VL: DIQMTQSPASLSASVGETVTFTCRASENIYSYLAWYQQKQGKSPQLLVHDAKTLAEGVPSRFSGGGSGTQFSLKINTLQPEDFGTYYCQHHYGNPPTFGGGTKLEIK
notes: as for B2
Work on B3 yielded a Kd [6] of 845 nM, a koff [6] of 0.000475 s⁻¹ and a kon [6] of 562 M⁻¹ s⁻¹.

B4: mutant Fab W36-H of the 13B8.2 antibody (Fab, V domains shown)
VH: QVQLKQSGPGLVQPSQSLSITCTVSGFSLTTFGVHAVRQSPGKGLEWLGVIWRSGITDYNVPFMSRLSITKDNSKSQVFFKLNSLQPDDTAIYYCAKNDPGTGFAYWGQGTLVTVSA
VL: DIQMTQSPASLSASVGETVTFTCRASENIYSYLAWYQQKQGKSPQLLVHDAKTLAEGVPSRFSGGGSGTQFSLKINTLQPEDFGTYYCQHHYGNPPTFGGGTKLEIK
notes: as for B2
With B4 the “percent of cells” value [1] was 65.5%, the Kd [6] was 15.4 nM and the koff [6] was 0.000271 s⁻¹. It also gave a kon [6] of 17600 M⁻¹ s⁻¹.

B5: mutant Fab C92-H of the 13B8.2 antibody (Fab, V domains shown)
VH: QVQLKQSGPGLVQPSQSLSITCTVSGFSLTTFGVHWVRQSPGKGLEWLGVIWRSGITDYNVPFMSRLSITKDNSKSQVFFKLNSLQPDDTAIYYAAKNDPGTGFAYWGQGTLVTVSA
VL: DIQMTQSPASLSASVGETVTFTCRASENIYSYLAWYQQKQGKSPQLLVHDAKTLAEGVPSRFSGGGSGTQFSLKINTLQPEDFGTYYCQHHYGNPPTFGGGTKLEIK
notes: as for B2
For B5, the “percent of cells” value [4] was 76.5%, the Kd [6] was 3.7 nM and the koff [6] was 0.000358 s⁻¹. The kon [6] was 96100 M⁻¹ s⁻¹.

B6: mutant Fab W103-H of the 13B8.2 antibody (Fab, V domains shown)
VH: QVQLKQSGPGLVQPSQSLSITCTVSGFSLTTFGVHWVRQSPGKGLEWLGVIWRSGITDYNVPFMSRLSITKDNSKSQVFFKLNSLQPDDTAIYYCAKNDPGTGFAYAGQGTLVTVSA
VL: DIQMTQSPASLSASVGETVTFTCRASENIYSYLAWYQQKQGKSPQLLVHDAKTLAEGVPSRFSGGGSGTQFSLKINTLQPEDFGTYYCQHHYGNPPTFGGGTKLEIK
notes: as for B2
With B6 the “percent of cells” value [1] was 6.76%, the Kd [6] was 4030 nM and the koff [6] was 0.00112 s⁻¹. It also gave a kon [6] of 278 M⁻¹ s⁻¹.

B7: mutant Fab F32-H of the 13B8.2 antibody (Fab, V domains shown)
VH: QVQLKQSGPGLVQPSQSLSITCTVSGFSLTTAGVHWVRQSPGKGLEWLGVIWRSGITDYNVPFMSRLSITKDNSKSQVFFKLNSLQPDDTAIYYCAKNDPGTGFAYWGQGTLVTVSA
VL: DIQMTQSPASLSASVGETVTFTCRASENIYSYLAWYQQKQGKSPQLLVHDAKTLAEGVPSRFSGGGSGTQFSLKINTLQPEDFGTYYCQHHYGNPPTFGGGTKLEIK
notes: Chimeric Fab with human CH1-γ1 and Cκ; baculovirus/Sf9; also called F32 mutant Fab
B7 was tested, and the “percent of cells” value [1] was 82.4%, the Kd [2] was 13.5 nM and the koff [2] was 0.000248 s⁻¹. For the same binder, the kon [2] was 18300 M⁻¹ s⁻¹, the Kd [3] was 17 nM and the koff [3] was 0.000246 s⁻¹. For the same binder, the kon [3] was 14400 M⁻¹ s⁻¹, the Kd [5] was 16.9 nM and the koff [5] was 0.00025 s⁻¹. For the same binder, the kon [5] was 14800 M⁻¹ s⁻¹.

B8: mutant Fab H35-H of the 13B8.2 antibody (Fab, V domains shown)
VH: QVQLKQSGPGLVQPSQSLSITCTVSGFSLTTFGVAWVRQSPGKGLEWLGVIWRSGITDYNVPFMSRLSITKDNSKSQVFFKLNSLQPDDTAIYYCAKNDPGTGFAYWGQGTLVTVSA
VL: DIQMTQSPASLSASVGETVTFTCRASENIYSYLAWYQQKQGKSPQLLVHDAKTLAEGVPSRFSGGGSGTQFSLKINTLQPEDFGTYYCQHHYGNPPTFGGGTKLEIK
notes: as for B2
In the case of B8, the “percent of cells” value [1] is reported as 33.6%, the Kd [6] is reported as 6280 nM and the koff [6] is reported as 0.00189 s⁻¹. The kon [6] was 301 M⁻¹ s⁻¹.

B9: mutant Fab W52-H of the 13B8.2 antibody (Fab, V domains shown)
VH: QVQLKQSGPGLVQPSQSLSITCTVSGFSLTTFGVHWVRQSPGKGLEWLGVIARSGITDYNVPFMSRLSITKDNSKSQVFFKLNSLQPDDTAIYYCAKNDPGTGFAYWGQGTLVTVSA
VL: DIQMTQSPASLSASVGETVTFTCRASENIYSYLAWYQQKQGKSPQLLVHDAKTLAEGVPSRFSGGGSGTQFSLKINTLQPEDFGTYYCQHHYGNPPTFGGGTKLEIK
notes: as for B2
Work on B9 yielded a Kd [6] of 3620 nM, a koff [6] of 0.000859 s⁻¹ and a kon [6] of 237 M⁻¹ s⁻¹.

B10: control mutant Fab V61-H of the 13B8.2 antibody (Fab, V domains shown)
VH: QVQLKQSGPGLVQPSQSLSITCTVSGFSLTTFGVHWVRQSPGKGLEWLGVIWRSGITDYNAPFMSRLSITKDNSKSQVFFKLNSLQPDDTAIYYCAKNDPGTGFAYWGQGTLVTVSA
VL: DIQMTQSPASLSASVGETVTFTCRASENIYSYLAWYQQKQGKSPQLLVHDAKTLAEGVPSRFSGGGSGTQFSLKINTLQPEDFGTYYCQHHYGNPPTFGGGTKLEIK
notes: Chimeric Fab with human CH1-γ1 and Cκ; baculovirus/Sf9; Control position, not a Spot contributor residue; also called V61-Hcontrol
B10 gave a Kd [2] of 2 nM, a koff [2] of 0.000172 s⁻¹ and a kon [2] of 86800 M⁻¹ s⁻¹. The Kd [3] was 2.9 nM, the koff [3] was 0.000324 s⁻¹ and the kon [3] was 112000 M⁻¹ s⁻¹. The “percent of cells” value [4] was 62.9%.

B11: mutant Fab R38-H of the 13B8.2 antibody (Fab, V domains shown)
VH: QVQLKQSGPGLVQPSQSLSITCTVSGFSLTTFGVHWVAQSPGKGLEWLGVIWRSGITDYNVPFMSRLSITKDNSKSQVFFKLNSLQPDDTAIYYCAKNDPGTGFAYWGQGTLVTVSA
VL: DIQMTQSPASLSASVGETVTFTCRASENIYSYLAWYQQKQGKSPQLLVHDAKTLAEGVPSRFSGGGSGTQFSLKINTLQPEDFGTYYCQHHYGNPPTFGGGTKLEIK
notes: as for B2
With B11 the “percent of cells” value [4] was 48%, the Kd [6] was 859 nM and the koff [6] was 0.00014 s⁻¹. For the same binder, the kon [6] was 163 M⁻¹ s⁻¹.

B12: mutant Fab Y32-L of the 13B8.2 antibody (Fab, V domains shown)
VH: QVQLKQSGPGLVQPSQSLSITCTVSGFSLTTFGVHWVRQSPGKGLEWLGVIWRSGITDYNVPFMSRLSITKDNSKSQVFFKLNSLQPDDTAIYYCAKNDPGTGFAYWGQGTLVTVSA
VL: DIQMTQSPASLSASVGETVTFTCRASENIYSALAWYQQKQGKSPQLLVHDAKTLAEGVPSRFSGGGSGTQFSLKINTLQPEDFGTYYCQHHYGNPPTFGGGTKLEIK
notes: as for B2
Binder B12 has a Kd [6] of 8930 nM and a koff [6] of 0.000585 s⁻¹.

B13: hexapeptide 52WRSGIT57 of the CDR-H2 region of 13B8.2 (peptide)
peptide: WRSGIT
notes: Spot peptide on cellulose membrane; also called peptide 2
B13: binds [7].

WRAGIT (also called WRAGIT) [alanine analogue of peptide 52WRSGIT57 with Ser54 replaced by Ala (dotted bar S54)]: binds [7].

WRSGAT (also called WRSGAT) [alanine analogue of peptide 52WRSGIT57 with Ile56 replaced by Ala (dotted bar I56)]: binds [7].

WRSAIT (also called WRSAIT) [alanine analogue of peptide 52WRSGIT57 with Gly55 replaced by Ala (dotted bar G55)]: binds [7].

ARSGIT (also called ARSGIT) [alanine analogue of peptide 52WRSGIT57 with Trp52 replaced by Ala (dotted bar W52)]: binds [7].

WRSGIA (also called WRSGIA) [alanine analogue of peptide 52WRSGIT57 with Thr57 replaced by Ala (dotted bar T57)]: binds [7].

B14: hexapeptide 49GVIWRS54 of the CDR-H2 region of 13B8.2 (peptide)
peptide: GVIWRS
notes: also called peptide 1; control peptide 1
B14: binds [7].

B15: alanine analogue of peptide 49GVIWRS54 with Ile51 replaced by Ala (peptide)
peptide: GVAWRS
notes: Spot peptide on cellulose membrane; also called GVAWRS
B15: binds [7].

B16: alanine analogue of peptide 49GVIWRS54 with Gly49 replaced by Ala (peptide)
peptide: AVIWRS
notes: Spot peptide on cellulose membrane; also called AVIWRS
B16: binds [7].
